Biological target: PDL1-hFc (UniProt Q9NZQ7 19-238)
Assay: ELISA

Sequence of PDL1-hFc (Q9NZQ7 19-238): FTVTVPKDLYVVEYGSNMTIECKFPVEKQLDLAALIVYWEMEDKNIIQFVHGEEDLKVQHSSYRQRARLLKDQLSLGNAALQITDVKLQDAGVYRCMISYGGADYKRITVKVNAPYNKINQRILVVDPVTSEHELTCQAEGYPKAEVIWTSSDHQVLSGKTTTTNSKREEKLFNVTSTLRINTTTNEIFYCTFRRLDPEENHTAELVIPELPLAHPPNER

B1: mouse-human chimera 3C3 MM (antibody, V domains shown)
VH: EVQLQESGPGLTKPSQTLSLTCSVTGYSITSDYWDWIRKFPGNKLEYMGYISYTGSTYYNPSLRSRISITRDTSKNQYYLQLSSVTSEDSATYYCARRGGWLSPFVYWGQGTLVTVSA
VL: DTVMSQSPSSLGVSVGERVTLTCKSRQSLLFSSNQKNSLAWYQQKPGQSPKLLIYWASTRESGVPDRFTGSGSGTDFTLTISSVKSEDLAVYYCQQYYTYPFTFGAGTSLELK
- Kd: 0.0666 nM
